B1: Twister Ribozyme (parent)
chain: AACACUGCCAAUGCCGGUCCCAAGCCCGGAUAAAAGUGGAGGGGGCGG

Variants of: B1
Assay: self-cleavage, relative activity (ratio to wild type); higher = more cleavage; co-transcriptional

| Variant | self-cleavage |
| --- | --- |
| C14U G28C | 1.01 |
| C14U G28A | 1.09 |
| C14G U37G | 0.0706 |
| C14G C19U | 0.426 |
| C14U G41U | 0.719 |
| C14U G41C | 0.343 |
| C14U G41A | 0.698 |
| C14G G17C | 0.124 |
| C14G G17A | 0.122 |
| C14G A30U | 0.146 |
| C14U G17U | 0.373 |
| C14U G17C | 0.152 |
| C14A U18G | 0.0811 |
| C14A U18A | 0.485 |
| C14A U18C | 0.371 |
| C14A G38A | 0.874 |
| C14A G38C | 0.861 |
| C15G G44C | 0.0763 |
| C15G G44U | 0.075 |
| C14G A35U | 0.125 |
| C15G G39U | 0.0441 |

| Variant | self-cleavage |
| --- | --- |
| C15G G39C | 0.104 |
| C14U G42U | 0.486 |
| C14U G42C | 0.59 |
| C14G G38C | 0.159 |
| C14G G38U | 0.111 |
| C14A C27U | 0.75 |
| C14A C21U | 0.138 |
| C15G C19A | 0.0812 |
| C15G C19G | 0.0636 |
| G13C G38A | 0.219 |
| G13C G38U | 0.158 |
| C14U A23U | 0.722 |
| C14U A23G | 0.666 |
| C14U A23C | 0.51 |
| G13U G17A | 0.078 |
| G13U G17U | 0.101 |
| C14G G47A | 0.0923 |
| C14A G29U | 0.903 |
| C14A G29A | 0.974 |
| C14A G29C | 0.947 |
| G13C U37A | 0.075 |

| Variant | self-cleavage |
| --- | --- |
| C14U U18A | 0.635 |
| C14U U18C | 0.594 |
| C15A A22C | 0.533 |
| G13C G43U | 0.128 |
| C15A A23G | 0.141 |
| C15A A23U | 0.0658 |
| C14U C20G | 0.2 |
| G13C G16C | 0.044 |
| G13C G16A | 0.129 |
| G13C G16U | 0.132 |
| G13U C26G | 0.0668 |
| G13U C26U | 0.109 |
| G13U G44C | 0.488 |
| C14A A23G | 0.525 |
| C14A A23U | 0.508 |
| C15G A33C | 0.0859 |
| C15G A33G | 0.0911 |
| C15G C20A | 0.0716 |
| C15G G43A | 0.0569 |
| G13C G36U | 0.0844 |
| C14G A23C | 0.0556 |

| Variant | self-cleavage |
| --- | --- |
| C14G A23U | 0.0448 |
| G13C G24A | 0.0986 |
| G13C G24C | 0.0811 |
| G13U G24C | 0.0723 |
| C15G A30C | 0.0706 |
| C15G A30G | 0.123 |
| C15A A34C | 0.156 |
| C15A A34G | 0.422 |
| G13U G43A | 0.143 |
| C15A G48C | 0.715 |
| C15A G48A | 0.528 |
| C15A G48U | 0.573 |
| C15G A23G | 0.0653 |
| C15G G38A | 0.0635 |
| C15A G38C | 0.452 |
| C15A G38A | 0.4 |
| C14U A40G | 0.21 |
| C14G A34U | 0.159 |
| C14G A34C | 0.0831 |
| C14A G16U | 0.394 |
| C14A G16A | 0.641 |
